Test results as given in article PMC11909135, “Raptin, a sleep-induced hypothalamic hormone, suppresses appetite and obesity” (Cell Research, 2025).

Target: glutamate metabotropic receptor 3 (GRM3), endogenous (mouse (endogenous in GT1-7 neurons and …, UniProt Q9QYS2 23-879))
Experiment: cell-based or functional assay

Chain of glutamate metabotropic receptor 3 (GRM3), endogenous (mouse (Q9QYS2 23-879): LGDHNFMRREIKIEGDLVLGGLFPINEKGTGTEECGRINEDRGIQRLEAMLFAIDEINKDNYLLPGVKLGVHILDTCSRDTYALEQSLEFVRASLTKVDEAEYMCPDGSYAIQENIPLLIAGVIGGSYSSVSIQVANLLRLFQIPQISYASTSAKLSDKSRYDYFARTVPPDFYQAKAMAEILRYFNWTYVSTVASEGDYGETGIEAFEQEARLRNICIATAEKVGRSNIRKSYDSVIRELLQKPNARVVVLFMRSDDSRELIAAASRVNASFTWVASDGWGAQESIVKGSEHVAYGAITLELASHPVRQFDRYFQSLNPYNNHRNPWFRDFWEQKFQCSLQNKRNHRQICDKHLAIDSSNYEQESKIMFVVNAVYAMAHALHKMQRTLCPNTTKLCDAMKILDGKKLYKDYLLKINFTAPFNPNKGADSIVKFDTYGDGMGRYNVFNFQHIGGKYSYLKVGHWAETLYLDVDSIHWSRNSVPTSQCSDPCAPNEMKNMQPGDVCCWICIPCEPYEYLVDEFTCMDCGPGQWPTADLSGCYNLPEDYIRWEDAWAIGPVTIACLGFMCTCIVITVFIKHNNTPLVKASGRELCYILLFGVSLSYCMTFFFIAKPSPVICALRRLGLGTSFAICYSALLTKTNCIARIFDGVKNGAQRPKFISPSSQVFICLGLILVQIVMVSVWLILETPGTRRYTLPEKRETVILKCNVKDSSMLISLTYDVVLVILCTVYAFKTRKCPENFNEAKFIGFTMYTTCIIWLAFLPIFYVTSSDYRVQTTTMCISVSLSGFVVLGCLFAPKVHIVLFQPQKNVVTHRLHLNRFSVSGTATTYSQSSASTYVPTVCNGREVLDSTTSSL

- p-AKT accumulation in GT1-7 cells expressing GRM3 (EC50 of Raptin): 0.31 ng/mL
B1: recombinant mouse Raptin protein with a His-tag (ligand)
chain: AEELHYPQGEHRADYDREALLGVQEDVDEYVKLGHEEQQRRLQSIIKKIDSDSDGFLTENELSQWIQMSFKHYAMQEAKQQFVEYDKNSDGAVTWDEYNIQMYDRVIDFDENTALDDTEEGSFRQLHLKDKKRFEKANQDSGPGLSLEEFIAFEHPEEVDYMTEFVIQEALEEHDKNGDGFVSLEEFLGDYRRDPTANEDPEWILVEKDRFVNDYDKDNDGR
